# Numbered stars: 1 amine (or outer) side, 2 acyl side, 3 side chain; on linkers, the order of the positions; unused ones are H or OH. Bridge positions count the residues as written; N and C are the ends. Square brackets hold non-standard residues; d marks the D form. Ends that are not written are not given here. I, II: the chains in the order shown. * marks the point of attachment. Cys(Acm) = Cys protected with acetamidomethyl (Acm), CC(=O)NCSC[C@H](N[*:1])C(=O)[*:2]; Biotin = O=C1N[C@H]2[C@H](CS[C@H]2CCCCC(=O)*)N1; Ttds = O=C(CCC(=O)[*:2])NCCCOCCOCCOCCCN[*:1]
# Experiments:
# Assay in all cases: cell-based or functional assay
# HIV-1 gp41 (strain HXB2) [1] = target: T1, HIV-1 gp41 (strain HXB2) (HIV-1 strain HXB2, UniProt P04578 512-856)
# HIV-1 gp41 (strain HXB2) [2] = target: T1, HIV-1 gp41 (strain HXB2); remark: listed apart in the source
# HIV-1 gp41 (strain BaL) = HIV-1 gp41 (strain BaL) (HIV-1 strain BaL)
# HIV-1 gp41 (strain HXB2) [3] = target: T1, HIV-1 gp41 (strain HXB2); remark: listed apart in the source
# gp41 of SHIV-89.6P = gp41 of SHIV-89.6P (SHIV-89.6P)
# HIV-1 gp41 (strain 89.6) = HIV-1 gp41 (strain 89.6) (HIV-1 strain 89.6)
# [4] = target: HIV-1 gp41 (strain NL4-3) (HIV-1 strain NL4-3)
# HIV-1 gp41 (strain MN-1) = HIV-1 gp41 (strain MN-1) (HIV-1 strain MN-1, UniProt P05877 514-856)
# Sequence of HIV-1 gp41 (strain MN-1) (P05877 514-856 limits assumed): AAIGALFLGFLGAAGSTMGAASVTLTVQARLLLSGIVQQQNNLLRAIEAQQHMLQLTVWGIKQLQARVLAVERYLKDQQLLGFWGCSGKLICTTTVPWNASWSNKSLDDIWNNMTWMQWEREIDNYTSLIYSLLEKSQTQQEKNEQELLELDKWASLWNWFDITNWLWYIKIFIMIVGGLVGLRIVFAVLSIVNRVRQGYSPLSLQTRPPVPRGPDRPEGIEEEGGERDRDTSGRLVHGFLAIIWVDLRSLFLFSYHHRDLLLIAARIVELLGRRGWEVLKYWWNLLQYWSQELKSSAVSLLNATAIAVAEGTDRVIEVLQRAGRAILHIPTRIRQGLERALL
binder,measurement,setting,value
"IKKKIEAIEKLLQLTVWGIKQLQARILGGCC (not fully specified (bridges); also: homotrimer of three chains, cysteine pairing not given here) [(I10N17CC)3]","IC50, anti-viral activity against HIV-HXB2",HIV-1 gp41 (strain HXB2) [1],77.6 nM
Ac-IKKEIEAIKKEQEAIKKKIEAIEKLLQLTVWGIKALAAAIA-NH2 [IZN17Ala4],"IC50, anti-viral activity against HIV-HXB2",HIV-1 gp41 (strain HXB2) [1],25.3 nM
same,"IC50, single-cycle infectivity assay, HIV-1 HXB2 (FIG. 12A)",HIV-1 gp41 (strain HXB2) [2],25 nM
Ac-IKKEIEAIKKEQEAIKKKIEAIEKLLQLTVWGIKQLQARIL-NH2 (also: non-covalent trimeric coiled-coil) [IZN17],"IC50, anti-viral assay against HIV-1 HXB2 (FIG. 13)",HIV-1 gp41 (strain HXB2) [2],1.68 nM
same,"IC50, single-cycle infectivity assay, HIV-1 HXB2",HIV-1 gp41 (strain HXB2) [2],0.2 nM
same,"IC50, single-cycle HIV infectivity assay",HIV-1 gp41 (strain BaL),3.2 nM
same,"IC50, single-cycle HIV infectivity assay",HIV-1 gp41 (strain HXB2) [3],1.7 nM
"Ac-CCGGIKKKIEAIEKLLQLTVWGIKQLQARIL-NH2 (not fully specified (bridges); also: homotrimer of three chains, cysteine pairing not given here) [(CCI10N17)3]","IC50, anti-viral assay against HIV-1 HXB2 (FIG. 13)",HIV-1 gp41 (strain HXB2) [2],24 nM
same,"fold change of IC50 against (CCIZN17)3, anti-viral assay against HIV-1 HXB2 (FIG. 13)",HIV-1 gp41 (strain HXB2) [2],~150 fold
same,"fold change of IC50 against IZN17, anti-viral assay against HIV-1 HXB2 (FIG. 13)",HIV-1 gp41 (strain HXB2) [2],~10 fold
"Ac-CCGGIKKEIEAIKKEQEAIKKKIEAIEKLLQLTVWGIKQLQARIL-NH2 (not fully specified (bridges); also: homotrimer of three chains, cysteine pairing not given here) [(CCIZN17)3]","IC50, anti-viral assay against HIV-1 HXB2 (FIG. 13)",HIV-1 gp41 (strain HXB2) [2],0.132 nM
same,"IC50, single-cycle HIV infectivity assay",gp41 of SHIV-89.6P,6.9 nM
same,"IC50, single-cycle HIV infectivity assay",HIV-1 gp41 (strain BaL),0.34 nM
same,"IC50, single-cycle HIV infectivity assay",HIV-1 gp41 (strain HXB2) [3],0.04 nM
same,"IC50, single-cycle HIV infectivity assay",HIV-1 gp41 (strain 89.6),8 nM
same,"IC50, single-cycle HIV infectivity assay",[4],0.1 nM
same,"IC50, single-cycle HIV infectivity assay",HIV-1 gp41 (strain MN-1),0.9 nM
"Ac-CCGGIKKEIEAIKKEQEAIKKKIEAIEKLLQLTVWGIKQLQ (not fully specified (bridges); also: homotrimer of three chains, cysteine pairing not given here) [(CCIZN13)3]","IC50, antiviral activity against HIV HXB2 (FIG. 13)",HIV-1 gp41 (strain HXB2) [2],85.3 nM
"Ac-CCGGIKKEIEAIKKEQEAIKKKIEAIEKLLQLTVWGIKALAAAIA-NH2 (not fully specified (bridges); also: homotrimer of three chains, cysteine pairing not given here) [(CCIZN17Ala4)3]","IC50, anti-viral activity against HIV-HXB2",HIV-1 gp41 (strain HXB2) [1],47 nM
ac-C(Acm)(thioS17N17)3 (N-terminal acetyl (from bromoacetyl) joined by a thioether bond to a Cys of the CC chain; N-terminal acetyl; Cys1 thiol protected with Acm; Ttds linker between Cys1 and Cys2; Cys2 and Cys3 each joined by a thioether bond to the N-terminal acetyl of a GGGS17N17 chain) peptide 1: CCCGGIEKKIEAIEKKIEAIEKLLQLTVWGIKQLQARIL peptide 2: GGGIEKKIEAIEKKIEAIEKLLQLTVWGIKQLQARIL,"IC50, single cell infectivity assay, HIV-1 HXB2",HIV-1 gp41 (strain HXB2) [2],0.27 nM
"Ac-CCGGIEKKIEAIEKKIEAIEKLLQLTVWGIKQLQARIL-NH2 (not fully specified (bridges); also: homotrimer of three chains, cysteine pairing not given here) [(CCS17N17)3]","IC50, anti-viral activity against HIV-HXB2",HIV-1 gp41 (strain HXB2) [1],0.33 nM
NH2-C(Fm)(thioIZN17)3 (N-terminal acetyl (from bromoacetyl) joined by a thioether bond to a Cys of the CC chain; free N-terminal amine; Cys1 thiol protected with Fm; Ttds linker between Cys1 and Cys2; Cys2 and Cys3 each joined by a thioether bond to the N-terminal acetyl of a GGGIZN17 chain) peptide 1: CCCGGIKKEIEAIKKEQEAIKKKIEAIEKLLQLTVWGIKQLQARIL peptide 2: GGGIKKEIEAIKKEQEAIKKKIEAIEKLLQLTVWGIKQLQARIL,"IC50, single cell infectivity assay, HIV-1 HXB2",HIV-1 gp41 (strain HXB2) [2],1.1 nM
ac-C(Acm)(thioIZN17)3 (N-terminal acetyl (from bromoacetyl) joined by a thioether bond to a Cys of the CC chain; N-terminal acetyl; Cys1 thiol protected with acetamidomethyl (Acm); Ttds linker between Cys1 and Cys2; Cys2 and Cys3 each joined by a thioether bond to the N-terminal acetyl of a GGGIZN17 chain) peptide 1: CCCGGIKKEIEAIKKEQEAIKKKIEAIEKLLQLTVWGIKQLQARIL peptide 2: GGGIKKEIEAIKKEQEAIKKKIEAIEKLLQLTVWGIKQLQARIL,"IC50, anti-viral activity against HIV-HXB2",HIV-1 gp41 (strain HXB2) [1],0.24 nM
ac-C(thioIZN17)3 (N-terminal acetyl (from bromoacetyl) joined by a thioether bond to a Cys of the CC chain; N-terminal acetyl; Cys1 free thiol; Ttds linker between Cys1 and Cys2; Cys2 and Cys3 each joined by a thioether bond to the N-terminal acetyl of a GGGIZN17 chain) peptide 1: CCCGGIKKEIEAIKKEQEAIKKKIEAIEKLLQLTVWGIKQLQARIL peptide 2: GGGIKKEIEAIKKEQEAIKKKIEAIEKLLQLTVWGIKQLQARIL,"IC50, anti-viral activity assay, HIV-HXB2",HIV-1 gp41 (strain HXB2) [2],0.24 nM
Biotin-GGIKKEIEAIKKEQEAIKKKIEAIEKEIEAQQHLLQLTVWGIKQLQARIL [Biotin-IZN23],"IC50, single-cycle HIV infectivity assay",HIV-1 gp41 (strain HXB2) [3],2.17 nM
(Biotin-CCIZN23)3 (not fully specified (bridges); also: covalent homotrimer via three interchain disulfides) peptide: Biotin-GCCGGIKKEIEAIKKEQEAIKKKIEAIEKEIEAQQHLLQLTVWGIKQLQARIL,"IC50, single-cycle HIV infectivity assay",HIV-1 gp41 (strain HXB2) [3],0.316 nM
"ac-C(Acm)(thioE10N17)3 (bridge I:N-I:4; thioether (positions not given here); not fully specified (bridges); also: trimer, copy numbers of chains not given here) peptide 1: Ac-[Cys(Acm)][Ttds]CCIEEKIEEIEELLQLTVWGIKQLQARIL peptide 2: Ac-GGGIEEKIEEIEELLQLTVWGIKQLQARIL","IC50, anti-viral activity against HIV-HXB2",HIV-1 gp41 (strain HXB2) [1],150 nM

# Source: patent US20070224212A1 (Merck Sharp & Dohme, published 2007)
